# ± gives the uncertainty stated by the source.
# Assay: protein stability index of a GFP-peptide fusion (yeast GPS) (PSI 1-4); higher = more stable; sorted into four equal gates, so the index is relative within each strain
# Settings: ubr1∆
# Method in brief: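 Tiled 17-residue yeast protein peptides were fused downstream of GFP in a plasmid that also expresses Cherry, and the pooled library was carried in yeast. Mid-log cultures in leucine-free medium were sorted into four equal gates by GFP/Cherry fluorescence ratio, and plasmids from each gate were PCR-amplified and Illumina-sequenced, with reads assigned to strains by barcodes. The protein stability index for each peptide was each gate's read frequency times its gate number, summed.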
row,Sequence,protein stability index
1,VKEEYDIWQSRDQGNDS [YIL149C/MLP2],3.34 ± 0.11
2,VKFLVYQGVYSMGSILL [YML031W/NDC1],1.7 ± 0.17
3,VKIHSQESLLSRTFDKY [SRP72],2.57 ± 0.041
4,VKIIRKSETSGRYASYR [RPB5],3.09 ± 0.045
5,VKKASGEIVSINQINEA [RPL20A],2.79 ± 0.066
6,VKKAVTVHSKSRTRAHA [RPL19A],3.16 ± 0.1
7,VKNTNANPVVATDPVAA [SWP82],2.47 ± 0.061
8,VKRYRLAPTQLSAEYLV [SIN4],2.71 ± 0.043
9,VKSVNDPSQNRLTGSLL [RPC37],3.08 ± 0.048
10,VKWVHMIIDEGHRMKNA [SNF2],3.11 ± 0.2
11,VLADALNAINNAEKTGK [RPS22A],2.97 ± 0.049
12,VLEDCRHLPMYTEFIDS [ITC1],2.99 ± 0.066
13,VLGTPDQKIWPYLEKYP [SSN3],2.13 ± 0.059
14,VLIKKGQSAGKLAAIVE [RPL14A],2.77 ± 0.18
15,VLKTLEYKLATYGVPGS [NUT1],2.18 ± 0.08
16,VLLVEKYGAEYDLVDNK [NAS6],3 ± 0.19
17,VLNEDDLAFGGEANKHH [RPN5],3.48 ± 0.12
18,VLSINPDMYERKVENIR [MED7],2.79 ± 0.062
19,VLSQFERSYPSEFANQN [ROX3],2.78 ± 0.11
20,VLSSVREPDFWVIRKQR [MED6],3.11 ± 0.12
21,VLTGGYLDQHKRTRLES [SMC3],2.62 ± 0.26
22,VLTNIEVYRTSLNTKKN [SMC3],2.85 ± 0.12
23,VLTRMDEDRSKKEEELG [SNF2],3.27 ± 0.084
24,VLVLHGDKDTRADIVRN [ISW2],3.06 ± 0.054
25,VLVVRGSKKGQEGKISS [RPL26A],3.44 ± 0.084
26,VLYYRDARSSRNFSLAI [PRE4],2.39 ± 0.085

row,Sequence,protein stability index
1,VNASVDVDQHGNDNNSD [SWI3],3.3 ± 0.038
2,VNKVPQNVAGDKTAVKL [SWP82],3.07 ± 0.071
3,VNLEDNTQDLLLLLSLF [YML103C/NUP188],2.47 ± 0.091
4,VNLSEVMTVPGIDPTRI [RPO21],3.05 ± 0.064
5,VNRQSPLFFVDLKLLFN [RGR1],1.23 ± 0.11
6,VNTMGTGGQTIDNGTGR [MED6],3.19 ± 0.073
7,VPFESLQGVTYPVLRKL [YIL149C/MLP2],2.27 ± 0.068
8,VPFIIAAMVIMHLMALH [COB],1.43 ± 0.041
9,VPIERVAQLKPFFKYID [RPC37],2.71 ± 0.052
10,VPLSDNAIIEANLGKYG [RPL7A],2.28 ± 0.075
11,VPLTKRYQHLEKITQIS [PCI8],1.71 ± 0.096
12,VPNYEVSEKAFLLTQSK [RPN7],2.75 ± 0.14
13,VPPINCIFNFLQQQTPV [SME1],1.64 ± 0.042
14,VPSAKPLILTPPQLANQ [SNF11],2.03 ± 0.033
15,VPSPTGEYVKEPEWVLE [RPO21],3.15 ± 0.062
16,VPTIGVVNSNFAKEHNA [YJR042W/NUP85],2.54 ± 0.034
17,VPVIESAGFETDLRLST [SNU114],3.17 ± 0.14
18,VQEMALGGPITKESQPT [FAS2],3.01 ± 0.05
19,VQGAAPWDTSLEVGRRF [MCD1],3.43 ± 0.16
20,VQGMNDDIFIRYLTLLS [ECM29],1.15 ± 0.031
21,VQKILPLSNEVFEISEN [SWI1],2.17 ± 0.035
22,VQNLRSWETKLKQNILE [CSN9],1.82 ± 0.083
23,VQVSKAGGLPMDALTLM [RRP45],1.08 ± 0.14
24,VRAEELNISGEFFRNKL [RPL16A],3.36 ± 0.2
25,VREFLEKNYDRKEPPAT [PRE6],3.3 ± 0.068
26,VREYEQPDANKKKRSRT [ISW2],3.29 ± 0.11

row,Sequence,protein stability index
1,VRIDLGTIDKLQLELTI [RPO31],2.91 ± 0.042
2,VRLQRQKKILSIRLKVP [RPL8B],1.25 ± 0.025
3,VRPSISFNESQRGEDDL [RPO21],2.68 ± 0.083
4,VRSFSKALDELKPEIEK [LRP1],3.22 ± 0.064
5,VSCYRPRRDGERKRKSV [RPS6A],3.38 ± 0.082
6,VSDSNDDVRRAAVIALG [RPN2],3.42 ± 0.14
7,VSECIILGQTMSIGTGS [RPO31],2.58 ± 0.055
8,VSETPKRIKGLEFSALS [RPO31],2.97 ± 0.1
9,VSFNDSQSMVTNKENNI [YIL149C/MLP2],3.16 ± 0.046
10,VSFNSKQNEQLHVEQLS [SMC3],2.85 ± 0.066
11,VSKEQFLKDADVECIKA [YJL039C/NUP192],1.89 ± 0.042
12,VSKQLGNGLVDENKVEA [YAR002W/NUP60],3.21 ± 0.049
13,VSKVQKRKVLELKKKRK [SRP72],2.48 ± 0.054
14,VSLCAKNMGLVPMKEEN [SSN2],2.26 ± 0.093
15,VSLQNFSSSVSLSYMAF [RRP40],1.83 ± 0.04
16,VSLTQLRCVKYLQETAI [RPC82],3.1 ± 0.28
17,VSSRVRGYTCQFVDMVL [FAS1],2.02 ± 0.081
18,VSSSKNKKSEENEMIKP [SWP82],3.49 ± 0.28
19,VSTETFEQPSQREEAKK [RPL27A],3.1 ± 0.067
20,VSVLLISKDCSAFACKT [BRR2],2.17 ± 0.049
21,VTEANIIKLVEGLANDP [RPS12],2.73 ± 0.073
22,VTEETTKQIQSVRIDGR [SIR4],2.12 ± 0.074
23,VTHMDQIFVRGSQIKFI [SMD3],2.04 ± 0.067
24,VTLDITTLTIMRILPRE [RPT4],2.45 ± 0.038
25,VTLSQLVSVTSTLQHFQ [MED8],1.87 ± 0.02
26,VTNALDNIDEKVVKAIR [NUT1],1.61 ± 0.048

row,Sequence,protein stability index
1,VTNFNSTNEDQNNSKHT [SRB5],2.71 ± 0.076
2,VTNSPLFQTIEKLINNS [ECM29],2.92 ± 0.066
3,VTQSNILSQQFDKIIKI [SRB8],2.89 ± 0.045
4,VTRTHGNSGVVRATFRN [RPL33A],2.86 ± 0.073
5,VTSADSNLKISLVKYPE [SWI1],2.75 ± 0.05
6,VTTCVYLACKVEECPQY [SSN8],1.96 ± 0.073
7,VTVHSLTGEATANALPL [RPL4A],2.86 ± 0.041
8,VVAKLEDKRKVRSAEYY [RPL16B],3.37 ± 0.14
9,VVDFLKRNGSTLEQKVN [FAS1],3.07 ± 0.04
10,VVEEFTPVVLATPIPEE [RPS5],2.17 ± 0.049
11,VVGQNQLIDQFEWDISN [SNF5],3 ± 0.12
12,VVIEKRRKKILNEIELD [GRR1],2.96 ± 0.054
13,VVILARAKALGIKVTNP [RPL32],2.93 ± 0.076
14,VVLVSGEGERFTVDKKI [SKP1],2.97 ± 0.094
15,VVNDLVGEKLVVVVLEE [SIR3],3.53 ± 0.081
16,VVPDLGHLNGHTPTIAS [SSN2],2.59 ± 0.038
17,VVRNMLALTTLSEPLIK [YCG1],1.66 ± 0.061
18,VVSAVGEARNDIENKEE [YAR002W/NUP60],2.9 ± 0.076
19,VVSLKEGMFANANRVFR [SMC2],3.18 ± 0.062
20,VVVVGTVTDDARIFEFP [RPL18A],2.79 ± 0.092
21,VVWYQRLTMGNVFTPEI [RRI2],2.45 ± 0.073
22,VWAPTQKCFKLTHRLGG [POP1],2.47 ± 0.054
23,VWFSHPRRFGKGSRQCR [RPS29B],3.23 ± 0.071
24,VYESEMEQCKQRYQDLS [YIL149C/MLP2],3.24 ± 0.094
